Measured values as given in publication PMC3899939, “IpsA, a novel LacI-type regulator, is required for inositol-derived lipid formation in Corynebacteria and Mycobacteria” (BMC Biology, 2013).

T1: IpsA (Cg2910) (Corynebacterium glutamicum, UniProt Q8NMF0)
T1 construct: C-terminal STREP-tag variant (pAN6-ipsA-STREP), expressed in E. coli BL21(DE3), StrepTactin and gel filtration; 79 kDa, dimer
T1 sequence (Q8NMF0 1-358): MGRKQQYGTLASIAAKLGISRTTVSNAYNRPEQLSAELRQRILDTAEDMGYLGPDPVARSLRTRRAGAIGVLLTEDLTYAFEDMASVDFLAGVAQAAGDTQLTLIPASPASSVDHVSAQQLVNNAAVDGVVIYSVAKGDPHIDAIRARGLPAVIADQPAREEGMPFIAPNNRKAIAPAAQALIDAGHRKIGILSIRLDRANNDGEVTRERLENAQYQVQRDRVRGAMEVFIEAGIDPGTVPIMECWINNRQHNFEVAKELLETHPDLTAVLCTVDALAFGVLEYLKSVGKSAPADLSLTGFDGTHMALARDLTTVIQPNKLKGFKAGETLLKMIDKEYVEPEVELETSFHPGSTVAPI

T2: IpsA-Strep (Corynebacterium glutamicum ATCC 13032, UniProt Q8NMF0 1-358)
T2 sequence: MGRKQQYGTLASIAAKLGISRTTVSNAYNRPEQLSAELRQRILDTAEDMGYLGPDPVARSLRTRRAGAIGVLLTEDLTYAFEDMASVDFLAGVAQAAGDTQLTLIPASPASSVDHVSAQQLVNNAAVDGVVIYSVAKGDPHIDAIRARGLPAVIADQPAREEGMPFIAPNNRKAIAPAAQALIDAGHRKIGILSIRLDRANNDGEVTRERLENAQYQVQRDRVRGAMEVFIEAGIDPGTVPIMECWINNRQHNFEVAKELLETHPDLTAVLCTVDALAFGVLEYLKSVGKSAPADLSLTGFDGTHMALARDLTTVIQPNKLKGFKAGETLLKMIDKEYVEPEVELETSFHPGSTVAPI


Tests used:
[1] = biological target: T1, IpsA (Cg2910); assay: EMSA, dissociation of IpsA-DNA complex (ino1 promoter); format: binding; conditions: effector; IpsA preincubated 20 min with effector, then DNA; 50 mM Tris-HCl pH 7.5, 40 mM KCl, 5 mM MgCl2, room temperature
[2] = biological target: T2, IpsA-Strep; assay: EMSA; EMSA: 50 mM Tris-HCl pH 7.5, 40 mM KCl, 5 mM MgCl2, room temperature, 10 uL, DNA 0.028-1 uM, 10-15% native PAGE; conditions: protein: recombinant; tags: C-terminal STREP-tag; chain copies: 2; blunt

| lowest concentration with observed effect [1] [mM] | Molecule | binding result [2] |
| --- | --- | --- |
| 0.2 | O[C@H]1[C@H](O)[C@@H](O)[C@H](O)[C@@H](O)[C@H]1O [myo-I, myo-inositol] |  |
|  | cg3323 M4 (dsDNA) DNA 1: TTGAGTTGCTTGATCTCGCAGGTCTGATTT DNA 2: AAATCAGACCTGCGAGATCAAGCAACTCAA | no binding |
|  | cg3323 M3 (dsDNA) DNA 1: TTGAGTTGCTTGCGAGATCAGGTCTGATTT DNA 2: AAATCAGACCTGATCTCGCAAGCAACTCAA | no binding |
|  | cg3323 WT 30-mer (dsDNA) DNA 1: TTGAGTTGCTTGATCGATCAGGTCTGATTT DNA 2: AAATCAGACCTGATCGATCAAGCAACTCAA | binds |
|  | cg3323 M5 (dsDNA) DNA 1: TTGAGTTGCTTGATCGATACTGTCTGATTT DNA 2: AAATCAGACAGTATCGATCAAGCAACTCAA | binds |
